Among the data in PMC7514066, “ICOS agonism by JTX-2011 (vopratelimab) requires initial T cell priming and Fc cross-linking for optimal T cell activation and anti-tumor immunity in preclinical models” (PLoS ONE, 2020) are Kd values, retold here.

The target of the assay is T1, hB7-1-Fc (human, UniProt P33681 35-242).
T1 construct: human B7-1 (CD80), recombinant Fc fusion; also called rhB7-1; source: bought: R&D Systems
T1 sequence (looked up): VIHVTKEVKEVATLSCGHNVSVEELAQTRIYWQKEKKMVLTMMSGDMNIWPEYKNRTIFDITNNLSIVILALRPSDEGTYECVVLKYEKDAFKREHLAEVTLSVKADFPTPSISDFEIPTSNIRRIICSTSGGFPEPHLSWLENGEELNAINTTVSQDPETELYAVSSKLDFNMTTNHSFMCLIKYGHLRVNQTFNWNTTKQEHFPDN
Description: BLI; ForteBio Octet; tested 'in a similar way' to the ICOS antibodies (there: antibody loaded on biosensors at 10 ug/mL, Fc protein in solution, dissociation in kinetics buffer: PBS with 0.1% BSA, 0.05% sodium azide, 0.02% Tween-20; global 1:1 fit); which partner was loaded is not said for this experiment. The following applies: both partners purified.

B1: mCD28-Fc (Fc fusion, mouse, UniProt P31041 20-150, looked up)
chain: NKILVKQSPLLVVDSNEVSLSCRYSYNLLAKEFRASLYKGVNSDVEVCVGNGNFTYQPQFRSNAEFNCDGDFDNETVTFRLWNLHVNHTDIYFCKIEFMYPPPYLDNERSNGTIIHIKEKHLCHTQSSPKL
notes: mouse CD28, recombinant Fc fusion; source: bought: R&D Systems
For orientation: Kd means the equilibrium constant for the complex coming apart. The low end stands for tighter binding, the high end for weaker binding. For B1, binding was put at a Kd of 14 nM.
